Test results published in PMC9482650, “Quantitative fragmentomics allow affinity mapping of interactomes” (Nature Communications, 2022).

Assays:
Assay in all cases: holdup assay
Parameters in all cases: key: below the threshold = too weak to quantify, mostly under pKd 3.1 to 4
[1] = target: PDZRN4_1, Q6ZMN7
[2] = target: T1, TJP3_3, O95049
T1 sequence (O95049 375-456, limits assumed, looked up): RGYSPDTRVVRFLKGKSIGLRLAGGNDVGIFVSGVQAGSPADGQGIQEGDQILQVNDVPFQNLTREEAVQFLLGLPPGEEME

[3] = target: T2, DFNB31_1, Q9P202
T2 sequence (Q9P202 135-233, limits assumed, looked up): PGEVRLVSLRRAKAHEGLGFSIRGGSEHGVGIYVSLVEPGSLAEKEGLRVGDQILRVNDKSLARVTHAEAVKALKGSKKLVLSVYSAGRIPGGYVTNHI

[4] = target: T3, SNTG2, Q9NY99
T3 sequence (Q9NY99 68-166, limits assumed, looked up): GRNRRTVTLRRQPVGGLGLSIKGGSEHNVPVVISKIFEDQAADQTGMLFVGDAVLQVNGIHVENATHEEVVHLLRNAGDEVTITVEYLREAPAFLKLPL

[5] = target: SCRIB_2, Q14160
[6] = target: DLG4_2, P78352
[7] = target: T4, DLG3_2, Q92796
T4 sequence (Q92796 221-321, limits assumed, looked up): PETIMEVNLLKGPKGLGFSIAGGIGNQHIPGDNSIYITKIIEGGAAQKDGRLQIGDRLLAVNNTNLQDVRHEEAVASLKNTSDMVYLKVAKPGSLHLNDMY

[8] = target: NHERF2_2, Q15599
[9] = target: T5, SIPA1L2, Q9P2F8
T5 sequence (Q9P2F8 945-1036, limits assumed, looked up): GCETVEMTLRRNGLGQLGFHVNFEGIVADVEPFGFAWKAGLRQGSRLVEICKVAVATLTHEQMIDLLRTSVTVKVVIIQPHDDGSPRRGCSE

[10] = target: T6, SHANK1, Q9Y566
T6 sequence (Q9Y566 658-767, limits assumed, looked up): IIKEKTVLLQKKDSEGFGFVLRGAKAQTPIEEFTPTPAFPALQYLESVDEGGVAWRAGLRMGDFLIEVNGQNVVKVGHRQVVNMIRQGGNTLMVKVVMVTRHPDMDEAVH

[11] = target: T7, PTPN13_1, Q12923
T7 sequence (Q12923 1088-1188, limits assumed, looked up): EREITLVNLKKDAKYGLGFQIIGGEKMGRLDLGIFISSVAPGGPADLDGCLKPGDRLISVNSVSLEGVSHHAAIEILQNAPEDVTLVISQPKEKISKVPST

[12] = target: SCRIB_1, Q14160
[13] = target: LNX1_2, Q8TBB1
[14] = target: Inadl_6, Q8NI35
[15] = target: GRASP, Q7Z6J2
[16] = target: T8, SYNJ2BP, P57105
T8 sequence (P57105 8-110, limits assumed, looked up): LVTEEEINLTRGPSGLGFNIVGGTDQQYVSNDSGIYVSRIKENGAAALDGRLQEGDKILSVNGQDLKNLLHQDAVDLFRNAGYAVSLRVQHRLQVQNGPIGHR

[17] = target: AHNAK1, Q09666
[18] = target: FRMPD3, Q5JV73
[19] = target: T9, LRRC7, Q96NW7
T9 sequence (Q96NW7 1440-1537, limits assumed, looked up): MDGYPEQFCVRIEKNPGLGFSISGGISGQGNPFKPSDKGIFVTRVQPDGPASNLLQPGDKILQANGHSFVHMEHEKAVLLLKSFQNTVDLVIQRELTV

[20] = target: T10, MPP2, Q14168
T10 sequence (Q14168 180-250, limits assumed, looked up): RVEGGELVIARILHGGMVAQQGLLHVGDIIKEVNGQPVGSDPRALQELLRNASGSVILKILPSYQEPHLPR

[21] = target: T11, ARHGAP21, Q5T5U3
T11 sequence (Q5T5U3 45-169, limits assumed, looked up): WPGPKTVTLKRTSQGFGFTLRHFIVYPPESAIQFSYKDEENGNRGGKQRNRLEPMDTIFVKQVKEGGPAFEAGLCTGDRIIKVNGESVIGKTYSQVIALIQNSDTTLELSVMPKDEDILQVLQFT

[22] = target: DLG2_2, Q15700
[23] = target: NHERF4_2, Q86UT5
[24] = target: T12, DLG3_3, Q92796
T12 sequence (Q92796 374-475, limits assumed, looked up): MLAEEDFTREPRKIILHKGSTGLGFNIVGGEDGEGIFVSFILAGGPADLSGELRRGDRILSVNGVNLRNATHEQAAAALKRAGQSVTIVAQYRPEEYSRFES

[25] = target: PTPN3, P26045
[26] = target: SCRIB_3, Q14160
[27] = plain residues with an end cap or a label only (N-terminal biotin on a linker: ttds)
[28] = plain residues with an end cap or a label only (N-terminal biotin on a linker: ahx)
[29] = plain residues with an end cap or a label only (N-terminal biotin on a linker: ado-ado)

Chain of DLG2_2, Q15700 (Q15700 189-283): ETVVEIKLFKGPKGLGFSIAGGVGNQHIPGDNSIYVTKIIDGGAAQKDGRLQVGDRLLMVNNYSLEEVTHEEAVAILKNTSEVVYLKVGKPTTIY
Chain of NHERF2_2, Q15599 (Q15599 142-238): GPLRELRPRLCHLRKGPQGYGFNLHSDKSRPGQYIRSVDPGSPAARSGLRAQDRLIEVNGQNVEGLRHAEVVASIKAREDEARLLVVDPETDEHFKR
Chain of NHERF4_2, Q86UT5 (Q86UT5 220-308): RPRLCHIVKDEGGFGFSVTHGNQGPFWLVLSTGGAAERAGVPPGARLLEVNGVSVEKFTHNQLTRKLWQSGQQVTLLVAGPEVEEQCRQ
Chain of SCRIB_1, Q14160 (Q14160 718-814): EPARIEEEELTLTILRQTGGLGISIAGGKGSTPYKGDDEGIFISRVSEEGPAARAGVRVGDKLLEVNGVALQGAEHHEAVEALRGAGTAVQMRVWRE
Chain of PDZRN4_1, Q6ZMN7 (Q6ZMN7 213-318): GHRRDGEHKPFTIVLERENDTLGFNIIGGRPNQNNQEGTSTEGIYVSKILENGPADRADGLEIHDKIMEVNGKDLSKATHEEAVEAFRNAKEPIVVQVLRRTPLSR
Chain of FRMPD3, Q5JV73 (Q5JV73 12-100): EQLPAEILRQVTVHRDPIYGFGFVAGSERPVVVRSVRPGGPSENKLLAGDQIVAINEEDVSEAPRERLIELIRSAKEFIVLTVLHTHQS
Chain of GRASP, Q7Z6J2 (Q7Z6J2 96-193): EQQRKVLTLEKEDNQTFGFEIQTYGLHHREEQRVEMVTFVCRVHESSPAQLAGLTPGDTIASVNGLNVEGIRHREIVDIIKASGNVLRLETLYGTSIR
Chain of PTPN3, P26045 (P26045 505-587): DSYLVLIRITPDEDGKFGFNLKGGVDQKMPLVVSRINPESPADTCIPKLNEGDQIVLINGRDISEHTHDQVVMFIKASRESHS
Chain of SCRIB_2, Q14160 (Q14160 857-960): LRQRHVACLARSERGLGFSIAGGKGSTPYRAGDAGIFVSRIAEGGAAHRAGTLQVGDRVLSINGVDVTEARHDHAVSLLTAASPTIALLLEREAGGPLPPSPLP
Chain of SCRIB_3, Q14160 (Q14160 999-1103): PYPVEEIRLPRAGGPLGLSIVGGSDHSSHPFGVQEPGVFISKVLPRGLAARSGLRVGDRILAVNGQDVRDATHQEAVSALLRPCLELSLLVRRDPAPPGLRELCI
Chain of DLG4_2, P78352 (P78352 155-259): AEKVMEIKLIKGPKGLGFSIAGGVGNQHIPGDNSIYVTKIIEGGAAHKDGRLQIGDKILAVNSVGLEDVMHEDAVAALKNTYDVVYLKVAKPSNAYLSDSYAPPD
Chain of LNX1_2, Q8TBB1 (Q8TBB1 371-470): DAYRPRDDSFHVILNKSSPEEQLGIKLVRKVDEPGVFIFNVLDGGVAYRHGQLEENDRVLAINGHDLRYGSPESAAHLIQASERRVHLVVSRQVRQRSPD
Chain of Inadl_6, Q8NI35 (Q8NI35 1058-1167): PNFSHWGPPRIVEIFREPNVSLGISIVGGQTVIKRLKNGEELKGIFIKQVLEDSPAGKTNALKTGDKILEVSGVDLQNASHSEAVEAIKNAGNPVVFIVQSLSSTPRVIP
Chain of AHNAK1, Q09666 (Q09666 4-100): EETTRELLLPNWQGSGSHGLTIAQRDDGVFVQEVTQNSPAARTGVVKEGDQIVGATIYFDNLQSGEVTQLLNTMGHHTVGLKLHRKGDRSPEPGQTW

B1: HPV31-E6, P17386 (peptide)
chain: SRRPRTETQV
[1]; [27]
  pKd: 4.19
[2]; [27]
  pKd: below the threshold
[3]; [27]
  pKd: 3.55
[4]; [27]
  pKd: 4.08
[5]; [27]
  pKd: 4.38
[6]; [27]
  pKd: 5.36
[7]; [27]
  pKd: 5.41
[8]; [27]
  pKd: below the threshold
[9]; [27]
  pKd: below the threshold
[10]; [27]
  pKd: below the threshold
[11]; [27]
  pKd: below the threshold
[12]; [27]
  pKd: 4.6
[13]; [27]
  pKd: below the threshold
[14]; [27]
  pKd: below the threshold
[15]; [27]
  pKd: below the threshold
[16]; [27]
  pKd: 5.41
[17]; [27]
  pKd: below the threshold
[18]; [27]
  pKd: below the threshold
[19]; [27]
  pKd: below the threshold
[20]; [27]
  pKd: below the threshold
[21]; [27]
  pKd: below the threshold
[22]; [27]
  pKd: 5.37
[23]; [27]
  pKd: below the threshold
[24]; [27]
  pKd: 5.1
[25]; [27]
  pKd: 4.66
[26]; [27]
  pKd: 4.56

B2: LNX1, Q8TBB1 (peptide)
chain: TIVSWPGTFL
[1]; [28]
  pKd: 4.16
[2]; [28]
  pKd: below the threshold
[3]; [28]
  pKd: below the threshold
[4]; [28]
  pKd: below the threshold
[5]; [28]
  pKd: below the threshold
[6]; [28]
  pKd: below the threshold
[7]; [28]
  pKd: below the threshold
[8]; [28]
  pKd: 4.21
[9]; [28]
  pKd: below the threshold
[10]; [28]
  pKd: 4.24
[11]; [28]
  pKd: below the threshold
[12]; [28]
  pKd: below the threshold
[13]; [28]
  pKd: below the threshold
[14]; [28]
  pKd: 4.1
[15]; [28]
  pKd: 4.15
[16]; [28]
  pKd: 4.49
[17]; [28]
  pKd: below the threshold
[18]; [28]
  pKd: below the threshold
[19]; [28]
  pKd: below the threshold
[20]; [28]
  pKd: below the threshold
[21]; [28]
  pKd: below the threshold
[22]; [28]
  pKd: below the threshold
[23]; [28]
  pKd: below the threshold
[24]; [28]
  pKd: below the threshold
[25]; [28]
  pKd: 4.52
[26]; [28]
  pKd: 4.29

B3: ACOT6, Q3I5F7 (peptide)
chain: GKKSVKHSKI
[1]; [29]
  pKd: below the threshold
[2]; [29]
  pKd: below the threshold
[3]; [29]
  pKd: 4.33
[4]; [29]
  pKd: 3.52
[5]; [29]
  pKd: below the threshold
[6]; [29]
  pKd: 3.88
[7]; [29]
  pKd: below the threshold
[8]; [29]
  pKd: below the threshold
[9]; [29]
  pKd: below the threshold
[10]; [29]
  pKd: below the threshold
[11]; [29]
  pKd: 3.47
[12]; [29]
  pKd: 3.82
[13]; [29]
  pKd: below the threshold
[14]; [29]
  pKd: below the threshold
[15]; [29]
  pKd: below the threshold
[16]; [29]
  pKd: below the threshold
[17]; [29]
  pKd: below the threshold
[18]; [29]
  pKd: below the threshold
[19]; [29]
  pKd: below the threshold
[20]; [29]
  pKd: below the threshold
[21]; [29]
  pKd: 4.06
[22]; [29]
  pKd: 3.56
[23]; [29]
  pKd: below the threshold
[24]; [29]
  pKd: below the threshold
[25]; [29]
  pKd: 4.19
[26]; [29]
  pKd: below the threshold

B4: CTNNB1, P35222 (peptide)
chain: NQLAWFDTDL
[1]; [27]
  pKd: below the threshold
[2]; [27]
  pKd: below the threshold
[3]; [27]
  pKd: 4.28
[4]; [27]
  pKd: below the threshold
[5]; [27]
  pKd: 3.57
[6]; [27]
  pKd: below the threshold
[7]; [27]
  pKd: below the threshold
[8]; [27]
  pKd: 4.87
[9]; [27]
  pKd: below the threshold
[10]; [27]
  pKd: 4.1
[11]; [27]
  pKd: below the threshold
[12]; [27]
  pKd: 4.86
[13]; [27]
  pKd: below the threshold
[14]; [27]
  pKd: 4.13
[15]; [27]
  pKd: below the threshold
[16]; [27]
  pKd: 4.09
[17]; [27]
  pKd: below the threshold
[18]; [27]
  pKd: below the threshold
[19]; [27]
  pKd: 3.94
[20]; [27]
  pKd: below the threshold
[21]; [27]
  pKd: 4.88
[22]; [27]
  pKd: below the threshold
[23]; [27]
  pKd: below the threshold
[24]; [27]
  pKd: below the threshold
[25]; [27]
  pKd: 4.33
[26]; [27]
  pKd: 4.82

B5: SHROOM3, Q8TF72 (peptide)
chain: GIFPTLTSPL
[1]; [28]
  pKd: below the threshold
[2]; [28]
  pKd: below the threshold
[3]; [28]
  pKd: below the threshold
[4]; [28]
  pKd: below the threshold
[5]; [28]
  pKd: below the threshold
[6]; [28]
  pKd: below the threshold
[7]; [28]
  pKd: below the threshold
[8]; [28]
  pKd: 3.66
[9]; [28]
  pKd: below the threshold
[10]; [28]
  pKd: 4.8
[11]; [28]
  pKd: below the threshold
[12]; [28]
  pKd: below the threshold
[13]; [28]
  pKd: below the threshold
[14]; [28]
  pKd: below the threshold
[15]; [28]
  pKd: 5.03
[16]; [28]
  pKd: below the threshold
[17]; [28]
  pKd: below the threshold
[18]; [28]
  pKd: below the threshold
[19]; [28]
  pKd: below the threshold
[20]; [28]
  pKd: below the threshold
[21]; [28]
  pKd: below the threshold
[22]; [28]
  pKd: below the threshold
[23]; [28]
  pKd: below the threshold
[24]; [28]
  pKd: below the threshold
[25]; [28]
  pKd: 3.99
[26]; [28]
  pKd: below the threshold
